In US20230173042A1, “METHODS OF TREATMENT WITH ASPARAGINASE” (JAZZ PHARMACEUTICALS IRELAND LTD., priority 2017, published 2023):

Assays:
[1] = tested on: DB; assay: Oncolines cell proliferation assay (ATP luminescence); format: cell-based; conditions: large cell lymphoma, B lymphoblast
Procedure: (§1) Cell preparation. All cell lines have been licensed from the American Type Culture Collection (ATCC) Manassas, Va. (US). Master and Working Cell banks (MCB and WCB) were prepared by subculturing in ATCC-recommended media and freezing according to ATCC recommended protocols (www.atcc.org).
(§2) Compound preparation. Test compounds were prepared as stock solutions in DMSO or aqueous buffers as appropriate and serially diluted to obtain a dilution series.
(§3) Cell proliferation assay. Cell proliferation was assessed using a commercially available luminescence assay using ATP as the endpoint.
(§4) Controls. t=0 signal. On a parallel plate, 45 μl cells were dispensed and incubated in a humidified atmosphere of 5% CO2 at 37° C. After 24 hours 5 μl DMSO-containing Hepes buffer and 25 μl ATPlite 1Step™ solution were mixed, and luminescence measured after 10 minute incubation (=luminescencet=0).
(§5) Reference compound. The IC50 of the reference compound doxorubicin is measured on a separate plate. The IC50 is trended. If the IC50 is out of specification (0.32-3.16 times deviating from historic average) the assay is invalidated.
(§6) Cell growth control. The cellular doubling times of all cell lines are calculated from the t=0 hours and t=end growth signals of the untreated cells. If the doubling time is out of specification (0.5-2.0 times deviating from historic average) the assay is invalidated.
(§7) Maximum signals. For each cell line, the maximum luminescence was recorded after incubation until t=end without compound in the presence of 0.4% DMSO (=luminescenceuntreated,t=end).
(§8) IC50 were calculated by non-linear regression using IDBS XLfit. The percentage growth after incubation until t=end (%-growth) was calculated as follows: 100%×(luminescencet=end/luminescenceuntreated,t=end). This was fitted to the ^10log compound concentration (conc) by a 4-parameter logistics curve: %-growth=bottom+(top−bottom)/(1+10^(logIC50-conc)*hill)) where hill is the Hill-coefficient, and bottom and top the asymptotic minimum and maximum cell growth that the compound allows in that assay.
(§9) NCI60 parameters. The LD50, the concentration at which 50% of cells die, is the concentration where luminescencet=end=½×luminescencet=0h. […] This is concentration associated with the signal: ((luminescenceuntreated,t=end−luminescencet=0)/2)+luminescencet=0.
(§10) Curve fitting. […] The hill was fixed on −6 when the software calculated a lower value. […] Incidentally, when technical failures were likely, concentration points were knocked out.
(§11) The special volcano plot of FIG. 9 relates compound sensitivity (as measured by ^10logIC50) to the presence of cancer hotspot mutations. […] The hotspot mutations were derived from statistical analyses of the recurrence patterns of mutations and copy number alterations in patients through separate studies. Axes and statistical analyses are identical to the volcano plot of FIG. 8. The cutoff p-level for significance is 0.32. […] Effect20 For determination of the effect of the compound on the activity of other anti-cancer agents in SynergyScreen™ experiments, a low, fixed concentration is used, corresponding to the concentration at which cell growth is inhibited by 20%.

[2] = tested on: HL-60; assay: as above; format: cell-based; conditions: HL-60, acute promyelocytic leukemia
Procedure: as §1, §2, §3, §4, §5, §6, §7, §8, §9, §10, §11

[3] = tested on: HT-1080; assay: as above; format: cell-based; conditions: HT-1080, fibrosarcoma
Procedure: as §1, §2, §3, §4, §5, §6, §7, §8, §9, §10, §11

[4] = tested on: HT; assay: as above; format: cell-based; conditions: diffuse mixed lymphoma, B lymphoblast
Procedure: as §1, §2, §3, §4, §5, §6, §7, §8, §9, §10, §11

[5] = tested on: KG-1; assay: as above; format: cell-based; conditions: KG-1, acute myelogenous leukemia (AML)
Procedure: as §1, §2, §3, §4, §5, §6, §7, §8, §9, §10, §11

[6] = tested on: MOLT-4; assay: as above; format: cell-based; conditions: MOLT-4, acute lymphoblastic leukemia (ALL)
Procedure: as §1, §2, §3, §4, §5, §6, §7, §8, §9, §10, §11

[7] = tested on: MV-4-11; assay: as above; format: cell-based; conditions: MV-4-11, biphenotypic B myelomonocytic leukemia
Procedure: as §1, §2, §3, §4, §5, §6, §7, §8, §9, §10, §11

[8] = tested on: RL; assay: as above; format: cell-based; conditions: non-Hodgkin's lymphoma, B lymphoblast
Procedure: as §1, §2, §3, §4, §5, §6, §7, §8, §9, §10, §11

[9] = tested on: THP-1; assay: as above; format: cell-based; conditions: THP-1, acute monocytic leukemia
Procedure: as §1, §2, §3, §4, §5, §6, §7, §8, §9, §10, §11

[10] = tested on: U-87-MG; assay: as above; format: cell-based; conditions: glioblastoma, brain
Procedure: as §1, §2, §3, §4, §5, §6, §7, §8, §9, §10, §11

[11] = tested on: HL-60 cell line; assay: Combination (synergy) cell proliferation assay with pegcrisantaspase; format: cell-based
Procedure: Plate preparation. The stocks of the mixtures and single agents were diluted in DMSO or 0.9% sodium chloride to generate a 7-points dose-response series. After further 31.6 times dilution in 20 mM sterile Hepes buffer pH 7.4 (reference compounds) or medium (pegcrisantaspase), 5 μl of pegcrisantaspase solution, and 5 μl of reference compound was added to 40 μl pre-plated cells in duplicate in a 384-well assay plate. The final DMSO concentration during incubation was 0.4% in all wells.
Cell proliferation assay. A cell assay stock was thawed and diluted in appropriate medium and dispensed in a 384-well plate, depending on the cell line used, at a concentration of 800-3200 cells per well in […]: i.e., DB: 800 cells per well; RL: 1000 cells per well; MV-4-11: 1600 cells per well; KG-1, HL-60 and HT 3200 cells per well. For each used cell line the cell density was optimized previously. The margins of the plate were filled with phosphate-buffered saline. Plated cells were incubated in a humidified atmosphere of 5% CO2 at 37° C. After 24 hours, 5 μl of pegcrisantaspase solution, and 5 μl of reference compound was added, and plates were further incubated for another 72 hours. After 72 hours, plates were cooled in 30 minutes to room temperature and 25 μl of ATPlite 1Step™ (PerkinElmer) solution was added to each well, and subsequently shaken for 2 minutes. After 5 minutes of incubation in the dark at room temperature, the luminescence was recorded on an Envision multimode reader (PerkinElmer).
Controls: t=0 signal. On a parallel plate, 40 μl cells were dispensed in quadruplicate and incubated in a humidified atmosphere of 5% CO2 at 37° C. After 24 hours, plates were cooled to room temperature in 30 minutes. 5 μl DMSO-containing Hepes buffer, 5 μl 0.9% sodium chloride-containing medium and 25 μl ATPlite 1Step™ solution were added and subsequently mixed for 2 minutes. Luminescence was measured after 10 minute incubation (=luminescencet=0) in the dark.
as §6
Maximum signals. On each 384-well plate, the maximum luminescence was recorded after incubation for 72 hours without compound in the presence of 0.4% DMSO. All equivalent wells (usually 14) were averaged. This average is defined as: luminescenceuntreated,t=72h. Dose response curves. Accurate single agent IC50s are needed for combination analysis. For each single agent its dose-response signal was fitted by a 4-parameter logistics curve using XL-fit 5 (IDBS software):
luminescence=bottom+(top-bottom)/(1+10^(logIC50−log[cpd])−hill))
[cpd] is the compound concentration tested. hill is the Hill-coefficient. Bottom and top are the asymptotic minimum and maximum of the curve. Combination Index (CI) determination. The CI is one of the most widely used quantitative indications of synergy. The CI evaluates the concentrations needed to achieve a fixed-effect. A CI of below 1 indicates synergy.
CI is defined for a certain percentage cell viability (V), which is the signal related to a non-exposed control: V=100%×luminescencetreated,t=72h/luminescenceuntreated,t=72h. The concentrations of the two compounds cpd1 and cpd2 needed to reach a certain percentage cell viability V in combination are then compared to the concentrations needed as single agents:
IC50,cpd1 would signify the IC50 of cpd1 alone. The CI is labelled by %-effect, to follow conventions, so CI75 signifies the CI at 25% viability Curve shift analysis. This analysis provides a visual confirmation of synergy^1. The concentrations of the mixtures of compounds 1 and 2 (cpd1 and cpd2), and the single agents, were expressed in terms of IC50 equivalents (in ‘units’ of IC50):
The dose-response signal was fitted by a 4-parameter logistics curve using XL-fit 5 (IDBS software)

[12] = In vivo test of mPEG-r-crisantaspase with cytarabine and daunorubicin (tolerability, body weight); conditions: mice; PegC 5 & 50 IU/kg as single agent and with cytarabine 50 mg/kg and daunorubicin 1 mg/kg
[13] = in vivo; cited from earlier work
[14] = PEGylated enzyme relative to unmodified enzyme; cited from earlier work
[15] = children who received the drug; cited from earlier work
[16] = pegcrisantaspase with ABT-747, average Combination Index of the mixtures at ED50, HL-60

Molecule | Effect20 (concentration at which cell growth is inhibited by 20%) [1] [IU/mL] | Effect20 (concentration at which cell growth is inhibited by 20%) [2] [IU/mL] | Effect20 (concentration at which cell growth is inhibited by 20%) [3] [IU/mL] | Effect20 (concentration at which cell growth is inhibited by 20%) [4] [IU/mL] | Effect20 (concentration at which cell growth is inhibited by 20%) [5] [IU/mL] | Effect20 (concentration at which cell growth is inhibited by 20%) [6] [IU/mL] | Effect20 (concentration at which cell growth is inhibited by 20%) [7] [IU/mL] | Effect20 (concentration at which cell growth is inhibited by 20%) [8] [IU/mL] | Effect20 (concentration at which cell growth is inhibited by 20%) [9] [IU/mL] | Effect20 (concentration at which cell growth is inhibited by 20%) [10] [IU/mL] | Curve shift ([11]; pegcrisantaspase with ABT-747, HL-60, leftward shift indicates synergy) | Average CI value 1:1, 1:2 and 2:1 [11, 16] | Average CI value 1:1, 1:5 and 5:1 [11, 16] | Average CI value 1:1, 1:10 and 10:1 [11, 16] | IC50 (IU/mL) ([11]; single agent, HL-60, 72 hours) | maximal effect ([11]; single agents, dose-response curves of FIG. 3, HL-60) [%] | tolerability [12] | patients antibody-positive [13] | in vitro activity compared to the unmodified L-asparaginase [14] | children who had an allergic reaction [15]
Pegcrisantaspase: mPEG-r-crisantaspase conjugate: Erwinia chrysanthemi L-asparaginase conjugated to polyethylene glycol, prepared as set forth in U.S. Pat. No. 9,920,311 (conjugate, UniProt P06608 22-348, looked up, mPEG conjugate) L-asparaginase: ADKLPNIVILATGGTIAGSAATGTQTTGYKAGALGVDTLINAVPEVKKLANVKGEQFSNMASENMTGDVVLKLSQRVNELLARDDVDGVVITHGTDTVEESAYFLHLTVKSDKPVVFVAAMRPATAISADGPMNLLEAVRVAGDKQSRGRGVMVVLNDRIGSARYITKTNASTLDTFKANEEGYLGVIIGNRIYYQNRIDKLHTTRSVFDVRGLTSLPKVDILYGYQDDPEYLYDAAIQHGVKGIVYAGMGAGSVSVRGIAGMRKAMEKGVVVIRSTRTGNGIVPPDEELPGLVSDSLNPAHARILLMLALTRTSDPKVIQEYFHTY | 0.059 | 0.00028 | 0.013 | 0.033 | 0.00018 | 0.00019 | 0.0088 | 0.037 | 0.012 | 0.057 | yes | 0.26 | 0.29 | 0.33 | 0.070 | 88 | well tolerated | – | – | –
Erwinia L-asparaginase: L-asparaginase protein from Erwinia chrysanthemi, named crisantaspase, marketed as Erwinase (protein, UniProt P06608 22-348, looked up) L-asparaginase: ADKLPNIVILATGGTIAGSAATGTQTTGYKAGALGVDTLINAVPEVKKLANVKGEQFSNMASENMTGDVVLKLSQRVNELLARDDVDGVVITHGTDTVEESAYFLHLTVKSDKPVVFVAAMRPATAISADGPMNLLEAVRVAGDKQSRGRGVMVVLNDRIGSARYITKTNASTLDTFKANEEGYLGVIIGNRIYYQNRIDKLHTTRSVFDVRGLTSLPKVDILYGYQDDPEYLYDAAIQHGVKGIVYAGMGAGSVSVRGIAGMRKAMEKGVVVIRSTRTGNGIVPPDEELPGLVSDSLNPAHARILLMLALTRTSDPKVIQEYFHTY | – | – | – | – | – | – | – | – | – | – | – | – | – | – | – | – | – | 30-50% | – | –
Oncaspar: E. coli L-asparaginase modified at multiple lysine residues using 5 kDa mPEG-succinimidyl succinate (conjugate, UniProt P00805 23-348, looked up, 5 kDa mPEG-succinimidyl succinate on lysines, E. coli L-asparaginase modified at multiple lysine residues using 5 kDa mPEG-succinimidyl succinate) L-asparaginase 2: LPNITILATGGTIAGGGDSATKSNYTVGKVGVENLVNAVPQLKDIANVKGEQVVNIGSQDMNDNVWLTLAKKINTDCDKTDGFVITHGTDTMEETAYFLDLTVKCDKPVVMVGAMRPSTSMSADGPFNLYNAVVTAADKASANRGVLVVMNDTVLDGRDVTKTNTTDVATFKSVNYGPLGYIHNGKIDYQRTPARKHTSDTPFDVSKLNELPKVGIVYNYANASDLPAKALVDAGYDGIVSAGVGNGNLYKSVFDTLATAAKTGTAVVRSSRVPTGATTQDAEVDDAKYGFVASGTLNPQKARVLLQLALTQTKDPQQIQQIFNQY | 0.47 | 0.0003 | 0.00025 | 0.28 | 0.0001 | 0.00019 | 0.26 | 0.37 | 0.31 | 0.4 | – | – | – | – | – | – | – | – | approximately 50% | 30-41%
